Earlier results, collected in patent US9408889B2, “Fusion peptide designed to reduce plaque bacteria and yeast in the oral cavity” (RUTGERS, THE STATE UNIVERSITY OF NEW JERSEY, priority 2011, dated 2016).

Test system: Streptococcus mutans
Conditions: full length Lf variant expressed in an insect vector

B1: arginine variant: full length lactoferrin (Lf) variant with arginine at position 29, the more common variant (protein, UniProt P02788 1-710, looked up)
chain: MKLVFLVLLFLGALGLCLAGRRRSVQWCAVSQPEATKCFQWQRNMRKVRGPPVSCIKRDSPIQCIQAIAENRADAVTLDGGFIYEAGLAPYKLRPVAAEVYGTERQPRTHYYAVAVVKKGGSFQLNELQGLKSCHTGLRRTAGWNVPIGTLRPFLNWTGPPEPIEAAVARFFSASCVPGADKGQFPNLCRLCAGTGENKCAFSSQEPYFSYSGAFKCLRDGAGDVAFIRESTVFEDLSDEAERDEYELLCPDNTRKPVDKFKDCHLARVPSHAVVARSVNGKEDAIWNLLRQAQEKFGKDKSPKFQLFGSPSGQKDLLFKDSAIGFSRVPPRIDSGLYLGSGYFTAIQNLRKSEEEVAARRARVVWCAVGEQELRKCNQWSGLSEGSVTCSSASTTEDCIALVLKGEADAMSLDGGYVYTAGKCGLVPVLAENYKSQQSSDPDPNCVDRPVEGYLAVAVVRRSDTSLTWNSVKGKKSCHTAVDRTAGWNIPMGLLFNQTGSCKFDEYFSQSCAPGSDPRSNLCALCIGDEQGENKCVPNSNERYYGYTGAFRCLAENAGDVAFVKDVTVLQNTDGNNNEAWAKDLKLADFALLCLDGKRKPVTEARSCHLAMAPNHAVVSRMDKVERLKQVLLHQQAKFGRNGSDCPDKFCLFQSETKNLLFNDNTECLARLHGKTTYEKYLGPQYVAGITNLKKCSTSPLLEACEFLRK
modifications: full-length
notes: full length lactoferrin (Lf) variant with arginine at position 29, the more common variant
- effect on survival of S. mutans: little to no effect
